Experimental data: patent US20090269356, “Complement Binding Aptamers and Anti-C5 Agents Useful in the Treatment of Ocular Disorders” (published 2009)
Numbering of substitutions follows the chain as printed.

How the values were obtained:
[1] = molecular target: T1, complement C5 (full length) (Homo sapiens, UniProt P01031); assay: filter; dot blot, no binding; conditions: tags: Quidel / Complement Technologies A120.14 / Advanced Research Technologies
[2] = molecular target: T1, complement C5 (full length); assay: filter; among 11 best clones in 500 nM screen; Kd not given; conditions: tags: Quidel / Complement Technologies A120.14 / Advanced Research Technologies
Description: (§1) Doped reselection data. Both the normal and high salt selections were enriched after 5 rounds over the naïve pool. At round 5 the pool Kd was approximately 165 nM for the high salt selection and 175 nM for the normal salt selection. The extent of binding was about 20% at the plateau in both. The R4 pools were cloned using TOPO TA cloning kit (Invitrogen, Carlsbad, Calif.), and 48 clones from each pool were sequenced. 12 clones from each pool were transcribed and assayed in a single point dot blot assay at 500 nM C5. Dissociation constants (Kds) were again measured using the dot blot assay previously described. Kds were estimated for the 11 best clones identified in the single point screen, by fitting the data to the equation: fraction RNA bound=amplitude*Kd/(Kd+[C5]). The clones with the three best Kds were SEQ ID NO: 91 (73 nM), SEQ ID NO: 96 (84 nM) and SEQ ID NO: 95 (92 nM). The sequences for these 11 clones are listed below in Table 5.

[3] = molecular target: complement C5 in human serum/blood (Homo sapiens, UniProt P01031); assay: inhibition; CH50 hemolysis, 0.2% human serum, 37 C; conditions: protein: extract; label: 5'-32P; stem-loop
Chain of complement C5 in human serum/blood (P01031 whole entry): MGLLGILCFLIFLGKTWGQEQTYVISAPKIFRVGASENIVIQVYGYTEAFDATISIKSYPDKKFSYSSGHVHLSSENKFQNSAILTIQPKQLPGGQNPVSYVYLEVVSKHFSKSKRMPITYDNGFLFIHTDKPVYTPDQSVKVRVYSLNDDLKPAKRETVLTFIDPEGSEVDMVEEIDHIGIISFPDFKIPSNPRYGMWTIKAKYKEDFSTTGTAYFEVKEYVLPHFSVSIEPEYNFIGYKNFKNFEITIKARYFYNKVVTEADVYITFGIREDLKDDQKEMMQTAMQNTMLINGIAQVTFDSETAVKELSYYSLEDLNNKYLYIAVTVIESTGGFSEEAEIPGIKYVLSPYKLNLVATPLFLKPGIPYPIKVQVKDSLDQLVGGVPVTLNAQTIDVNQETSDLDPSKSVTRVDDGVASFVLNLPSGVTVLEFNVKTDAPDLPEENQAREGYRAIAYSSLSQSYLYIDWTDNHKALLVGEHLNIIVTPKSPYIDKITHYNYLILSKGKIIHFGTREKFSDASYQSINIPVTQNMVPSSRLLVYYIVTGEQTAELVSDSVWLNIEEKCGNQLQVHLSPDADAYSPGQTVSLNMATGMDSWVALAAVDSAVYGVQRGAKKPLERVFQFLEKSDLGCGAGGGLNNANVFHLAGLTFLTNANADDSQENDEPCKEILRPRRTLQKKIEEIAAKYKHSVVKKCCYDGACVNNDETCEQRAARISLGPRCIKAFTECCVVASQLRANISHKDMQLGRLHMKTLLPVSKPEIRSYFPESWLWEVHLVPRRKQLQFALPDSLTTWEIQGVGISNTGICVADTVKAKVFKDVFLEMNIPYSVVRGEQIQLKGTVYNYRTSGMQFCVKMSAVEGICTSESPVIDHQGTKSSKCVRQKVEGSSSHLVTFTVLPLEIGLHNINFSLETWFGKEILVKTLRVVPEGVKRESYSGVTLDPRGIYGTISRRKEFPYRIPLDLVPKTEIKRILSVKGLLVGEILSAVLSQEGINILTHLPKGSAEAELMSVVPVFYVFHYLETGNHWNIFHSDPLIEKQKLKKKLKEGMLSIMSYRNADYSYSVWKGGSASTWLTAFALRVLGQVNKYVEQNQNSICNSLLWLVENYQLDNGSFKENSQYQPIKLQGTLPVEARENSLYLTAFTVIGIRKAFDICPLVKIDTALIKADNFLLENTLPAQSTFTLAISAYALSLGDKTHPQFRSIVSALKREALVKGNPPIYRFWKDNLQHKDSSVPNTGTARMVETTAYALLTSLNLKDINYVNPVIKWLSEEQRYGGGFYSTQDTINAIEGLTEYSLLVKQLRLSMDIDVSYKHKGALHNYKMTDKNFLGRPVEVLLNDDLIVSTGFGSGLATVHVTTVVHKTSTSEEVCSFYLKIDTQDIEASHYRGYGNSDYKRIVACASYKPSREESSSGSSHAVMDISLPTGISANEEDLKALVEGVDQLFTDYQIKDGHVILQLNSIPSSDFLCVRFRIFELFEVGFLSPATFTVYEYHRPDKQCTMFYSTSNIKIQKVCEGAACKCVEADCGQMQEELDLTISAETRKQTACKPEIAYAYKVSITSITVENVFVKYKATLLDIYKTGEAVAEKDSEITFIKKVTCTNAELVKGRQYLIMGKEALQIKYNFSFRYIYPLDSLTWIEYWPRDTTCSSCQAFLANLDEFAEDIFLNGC
Description: The CH50 test measures the ability of the complement system in a serum test sample to lyse 50% of cells in a standardized suspension of antibody-coated sheep erythrocytes. A solution of 0.2% human serum was mixed with antibody-coated sheep erythrocytes (Diamedix EZ Complement CH50 Kit, Diamedix Corp., Miami, Fla.) in the presence or absence of various anti-C5 aptamers. The assay was run according to the kit protocol in veronal-buffered saline containing calcium, magnesium and 1% gelatin (GVB⁺⁺ complement buffer) and incubated for 30 minutes at 37° C. After incubation, the samples were centrifuged to pellet intact erythrocytes. The optical density at 412 nm (OD₄₁₂) of the supernatant was read to quantify the release of soluble hemoglobin, which is proportional to the extent of hemolysis (Green et al., (1995) Chem. Biol. 2:683-95). To verify that the aptamers blocked C5 activation, some hemolysis supernatants were analyzed for the presence of C5a and C5b-9 by ELISA (C5b-9 ELISA kit, Quidel, San Diego, Calif.; C5a ELISA kit, BD Biosciences, San Diego, Calif.) following the ELISA kit protocols.

[4] = molecular target: T1, complement C5 (full length); assay: filter; PBS, 1 mM MgCl2, 23 C, 4 h; 0.6 nM at 37 C; kinetic estimate 0.07 nM (koff 0.013 /min, kon 0.18 /nM/min); conditions: tags: Quidel / Complement Technologies A120.14 / Advanced Research Technologies; label: 5'-32P; stem-loop
Description: The binding reactions were analyzed by nitrocellulose filtration using a Minifold I dot-blot, 96-well vacuum filtration manifold (Schleicher & Schuell, Keene, N.H.). A three-layer filtration medium was used, consisting (from top to bottom) of Protran nitrocellolose (Schleicher & Schuell), Hybond-P nylon (Amersham Biosciences, Piscataway, N.J.) and GB002 gel blot paper (Schleicher & Schuell). The nitrocellulose layer, which selectively binds protein over nucleic acid, preferentially retained the anti-C5 aptamer in complex with a protein ligand, while non-complexed anti-C5 aptamer passed through the nitrocellulose and adhered to the nylon. The gel blot paper was included simply as a supporting medium for the other filters. Following filtration, the filter layers were separated, dried and exposed on a phosphor screen (Amersham Biosciences) and quantified using a Storm 860 Phosphorimager® blot imaging system (Amersham Biosciences).
To analyze the association reaction, the equilibration rate constant (keq) for the formation of C5·ARC186 was measured in the presence of varying concentrations of C5 protein (1-5 nM). Complex formation was initiated by mixing together C5 protein and radiolabeled ARC186 in PBS containing 1 mM MgCl₂ at room temperature (23° C.), and stopped by nitrocellulose filtration partitioning. […]

C5a des Arg = C5a des Arg (Homo sapiens, UniProt P01031 P01031:678-750); assay: filter; printed >>3 uM; PBS, 1 mM MgCl2, BSA, tRNA, 25 or 37 C; conditions: tags: Complement Technologies A145.6; label: 5'-32P; stem-loop
Chain of C5a des Arg (P01031 678-750, one chain of several): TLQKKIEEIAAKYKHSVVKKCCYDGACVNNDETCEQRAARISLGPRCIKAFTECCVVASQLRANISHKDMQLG
Description: (§2) The specificity of ARC186 (SEQ ID NO: 4) for C5 was also assessed in nitrocellulose filtration assays by comparison with complement components both upstream and downstream from C5 in the complement cascade. Purified human proteins and protein complexes were purchased from Complement Technologies (Iyler, Tex.) including: C1q (cat. # A099.18; 2.3 μM), C3 (cat. # A113c.8; 27 μM, C5 (cat. # A120.14; 5.4 μM), C5a des Arg (cat. # A145.6; 60 μM), sC5b-9 (cat. # A127.6; 1 μM), factor B (cat. # A135.12; 11 μM) and factor H (cat #A137.13P; 6.8 μM). Binding reactions were established by performing serial dilutions of protein in PBS plus 1 mM MgCl₂, 0.02 mg (mL BSA and 0.002 mg/mL tRNA, incubating for 14 hours at 25° C. or 37° C., and then applied to the nitrocellulose filtration apparatus as described above. Dissociation constants KD were determined from semi-log plots of % nitrocellulose binding versus [C5] by a fit of the data to the equation: % nitrocellulose binding=amplitude×[C5]/(KD+[C5]).

sC5b-9 complex = sC5b-9 complex (Homo sapiens, UniProt P01031;P01031;P13671;P10643;P07357;P07358;P07360;P02748;P04004 …); assay: filter; PBS, 1 mM MgCl2, BSA, tRNA, 25 or 37 C; conditions: tags: Complement Technologies A127.6; label: 5'-32P; stem-loop
Description: as §2

complement C3 = complement C3 (Homo sapiens, UniProt P01024;P01024 P01024:23-667,P01024:672-1663); assay: filter; non-activated C3 essentially does not bind; conditions: tags: Complement Technologies A113c.8; label: 5'-32P; stem-loop
Chain of complement C3 (P01024 23-667, chain 1 of 2): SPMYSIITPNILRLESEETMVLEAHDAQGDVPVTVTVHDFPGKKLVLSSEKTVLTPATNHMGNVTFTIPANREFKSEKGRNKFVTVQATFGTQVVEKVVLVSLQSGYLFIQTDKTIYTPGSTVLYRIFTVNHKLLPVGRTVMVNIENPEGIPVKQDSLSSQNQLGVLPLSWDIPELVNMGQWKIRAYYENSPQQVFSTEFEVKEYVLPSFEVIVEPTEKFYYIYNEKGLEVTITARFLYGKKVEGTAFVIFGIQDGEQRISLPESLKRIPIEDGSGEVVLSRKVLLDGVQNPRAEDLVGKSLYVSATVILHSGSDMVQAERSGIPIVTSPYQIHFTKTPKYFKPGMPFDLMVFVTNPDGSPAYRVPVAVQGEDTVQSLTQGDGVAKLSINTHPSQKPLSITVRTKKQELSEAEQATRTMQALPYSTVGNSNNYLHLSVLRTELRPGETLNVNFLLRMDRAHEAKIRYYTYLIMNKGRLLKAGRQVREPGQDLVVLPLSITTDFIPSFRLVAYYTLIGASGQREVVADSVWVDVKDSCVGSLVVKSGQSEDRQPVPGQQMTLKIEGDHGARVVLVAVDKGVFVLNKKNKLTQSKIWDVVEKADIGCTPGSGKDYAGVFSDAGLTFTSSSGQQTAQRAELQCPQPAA
Chain of complement C3 (P01024 672-1663, chain 2 of 2): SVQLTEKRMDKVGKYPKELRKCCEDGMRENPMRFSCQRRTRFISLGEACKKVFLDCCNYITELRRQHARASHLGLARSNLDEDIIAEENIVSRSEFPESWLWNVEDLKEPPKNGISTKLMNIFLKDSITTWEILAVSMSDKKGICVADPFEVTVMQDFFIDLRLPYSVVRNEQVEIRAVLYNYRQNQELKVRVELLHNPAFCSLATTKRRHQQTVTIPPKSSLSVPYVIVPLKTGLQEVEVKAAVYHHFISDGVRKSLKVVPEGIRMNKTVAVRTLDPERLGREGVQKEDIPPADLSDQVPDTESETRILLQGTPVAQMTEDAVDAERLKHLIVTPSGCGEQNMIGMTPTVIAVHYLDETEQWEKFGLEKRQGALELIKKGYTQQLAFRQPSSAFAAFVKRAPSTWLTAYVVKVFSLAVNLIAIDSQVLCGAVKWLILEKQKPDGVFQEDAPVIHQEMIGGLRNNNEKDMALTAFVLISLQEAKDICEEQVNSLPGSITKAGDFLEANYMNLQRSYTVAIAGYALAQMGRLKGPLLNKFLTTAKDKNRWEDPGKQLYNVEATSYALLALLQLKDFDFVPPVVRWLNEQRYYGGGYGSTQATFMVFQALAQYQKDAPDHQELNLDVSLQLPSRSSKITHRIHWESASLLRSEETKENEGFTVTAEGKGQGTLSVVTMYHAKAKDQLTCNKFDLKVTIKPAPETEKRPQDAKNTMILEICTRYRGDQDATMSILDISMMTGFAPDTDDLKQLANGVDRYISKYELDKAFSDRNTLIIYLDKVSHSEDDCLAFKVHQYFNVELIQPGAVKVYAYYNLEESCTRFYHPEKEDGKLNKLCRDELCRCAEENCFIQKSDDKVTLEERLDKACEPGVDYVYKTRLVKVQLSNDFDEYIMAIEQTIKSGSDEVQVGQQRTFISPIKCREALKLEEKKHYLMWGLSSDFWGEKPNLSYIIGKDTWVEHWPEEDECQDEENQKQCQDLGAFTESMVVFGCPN
Description: as §2

complement C1q = complement C1q (Homo sapiens, UniProt P02745;P02746;P02747 P02745:23-245,P02746:28-253,P02747:29-245); assay: filter; PBS, 1 mM MgCl2, BSA, tRNA; conditions: tags: Complement Technologies A099.18; chain copies: 6; label: 5'-32P; stem-loop
Chain of complement C1q (P02745 23-245, chain 1 of 3): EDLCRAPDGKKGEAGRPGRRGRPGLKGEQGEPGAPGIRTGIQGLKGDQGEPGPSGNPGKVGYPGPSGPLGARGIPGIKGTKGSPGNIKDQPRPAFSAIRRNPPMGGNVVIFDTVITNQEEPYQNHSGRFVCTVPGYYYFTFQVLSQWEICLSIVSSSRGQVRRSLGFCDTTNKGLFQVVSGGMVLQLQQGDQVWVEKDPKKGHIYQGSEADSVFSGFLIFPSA
Chain of complement C1q (P02746 28-253, chain 2 of 3): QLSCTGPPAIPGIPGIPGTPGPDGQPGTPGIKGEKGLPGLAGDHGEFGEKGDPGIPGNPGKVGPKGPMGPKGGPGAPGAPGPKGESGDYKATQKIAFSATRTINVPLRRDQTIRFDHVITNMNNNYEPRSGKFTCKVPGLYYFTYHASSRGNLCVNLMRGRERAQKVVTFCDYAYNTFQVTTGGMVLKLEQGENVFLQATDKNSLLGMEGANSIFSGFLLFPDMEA
Chain of complement C1q (P02747 29-245, chain 3 of 3): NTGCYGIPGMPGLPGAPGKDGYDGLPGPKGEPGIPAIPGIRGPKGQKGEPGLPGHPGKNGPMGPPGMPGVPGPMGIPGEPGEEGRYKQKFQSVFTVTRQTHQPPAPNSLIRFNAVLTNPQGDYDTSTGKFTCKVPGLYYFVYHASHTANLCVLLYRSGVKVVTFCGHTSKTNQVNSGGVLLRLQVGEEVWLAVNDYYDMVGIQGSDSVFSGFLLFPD
Description: as §2

[5] = molecular target: T1, complement C5 (full length); assay: filter; dot blot; 20% plateau; listing entry for SEQ 81 differs in length, printed sequence used; conditions: tags: Quidel / Complement Technologies A120.14 / Advanced Research Technologies
Description: (§3) The selection progress was monitored using a sandwich filter binding (dot blot) assay. The 5′-³²P-labeled pool RNA (trace concentration) was incubated with C5, 1×DPBS plus 0.1 mg/mL tRNA and 0.1 mg/mL salmon sperm DNA, for 30 minutes at room temperature, and then applied to a nitrocellulose and nylon filter sandwich in a dot blot apparatus (Schleicher and Schuell). The percentage of pool RNA bound to the nitrocellulose was calculated and monitored approximately every 3 rounds with a single point screen (+/−300 nM C5). Pool Kd measurements were measured using a titration of protein and the dot blot apparatus as described above.
(§4) Six constructs based on ARC913 (SEQ ID NO: 75) were transcribed, gel purified, and tested in dot blots for binding to C5.

[6] = molecular target: T1, complement C5 (full length); assay: filter; dot blot; conditions: tags: Quidel / Complement Technologies A120.14 / Advanced Research Technologies
Description: as §3, §4

[7] = molecular target: T1, complement C5 (full length); assay: filter; dot blot, DPBS; conditions: tags: Quidel / Complement Technologies A120.14 / Advanced Research Technologies
Description: as §3
as §1, with “Kds were estimated for the 11 best clones identified in the single point screen, by fitting the data to the equation: fraction RNA bound=amplitude*Kd/(Kd+[C5]). The clones with the three best Kds were SEQ ID NO: 91 (73 nM), SEQ ID NO: 96 (84 nM) and SEQ ID NO: 95 (92 nM). The sequences for these 11 clones are listed below in Table 5.” left out

T1 sequence (P01031 whole entry): as the sequence (P01031 whole entry) above

GGCGGCACAGGCAUACAUACGCAGGGGUCGCC (mixed, dRmY: A,G deoxy; C,U 2'-OMe) [ARC878]
binding result [1]: no binding

GGGUUUGGCACAGGCAUACAAACCC (mixed, dRmY: A,G deoxy; C,U 2'-OMe) [ARC877]
binding result [1]: no binding

B1: doped clone SEQ 98 (mixed)
RNA: GGGAGAGGAGAGAACGUUCUACCUUGGUUUGGCACAGGCAUAUAUACGCAGGGUCGAUCCGUUACGACUAGCAUCGAUG
modifications: dRmY: A,G deoxy; C,U 2'-OMe
binding result [2]: binds

GGGUUUGGCACAGGCAUACAUACCC (mixed, dRmY: A,G deoxy; C,U 2'-OMe) [ARC876]
binding result [1]: no binding

CGCCGCGGUCUCAGGCGCUGAGUCUGAGUUUACCUGCG (ssRNA, 2'-F all C and U; 2'-OMe purines except three 2'-OH purines; 3' inverted dT) [ARC186]
IC50 [3]: 0.5 nM
Kd [4]: 0.08 nM
Kd (C5a des Arg): > 3000 nM
Kd (sC5b-9 complex): > 200 nM
binding result (complement C3): no binding
Kd (complement C1q): > 300 nM

CGUUCUACCUUGGUUUGGCACAGGCAUACAUACGCAGGGGUCGAUCG (mixed, dRmY: A,G deoxy; C,U 2'-OMe) [ARC954]
Kd [5]: 130 nM

B2: doped clone SEQ 92 (mixed)
RNA: GGGAGAGGAGAGAACGUUCUACCUUGGUUUGGCGCAGGCAUACAUACGCAGGUCGAUCGGUUACGACUAGCAUCGAUG
modifications: dRmY: A,G deoxy; C,U 2'-OMe
binding result [2]: binds

CCUUGGUUUGGCACAGGCAUACAUACGCAGGG (mixed, dRmY: A,G deoxy; C,U 2'-OMe) [ARC874]
Kd [6]: 1000 nM

CCUUGGUUUGGCACAGGCAUACAAACGCAGGG (mixed, dRmY: A,G deoxy; C,U 2'-OMe) [ARC875]
binding result [1]: no binding

B3: doped clone SEQ 94 (mixed)
RNA: GGGAGAGGAGAGAACGUUCUACCUUGGUUUGGCACAGGCAUACAUACGCAGGUCGAUCGGUUACGACUA
modifications: dRmY: A,G deoxy; C,U 2'-OMe
binding result [2]: binds

B4: doped clone SEQ 95 (mixed)
RNA: GGGAGAGGAGAGAACGUUCUACCUUAGGUUCGCACUGUCAUACAUACACACGGGCAAUCGGUUACGACUAGCAUCGAUG
modifications: dRmY: A,G deoxy; C,U 2'-OMe
Kd [7]: 92 nM

B5: doped clone SEQ 88 (mixed)
RNA: GGGAGAGGAGAGAACGUUCUACCUUGGUUUGGCACAGGCAUACAUACGCAGGGGUCGAUCGGUUACGACUAGCAUCGAUG
modifications: dRmY: A,G deoxy; C,U 2'-OMe
binding result [2]: binds

B6: doped clone SEQ 89 (mixed)
RNA: B5 RNA with G53U, G61U
modifications: dRmY: A,G deoxy; C,U 2'-OMe
binding result [2]: binds

B7: doped clone SEQ 93 (mixed)
RNA: B5 RNA with G27U, U29G, G38C, U41A, A42C, A44C, G51C, G54A, A58C, U59C
modifications: dRmY: A,G deoxy; C,U 2'-OMe
binding result [2]: binds

B8: doped clone SEQ 90 (mixed)
RNA: B5 RNA with C43A, G54C
modifications: dRmY: A,G deoxy; C,U 2'-OMe
binding result [2]: binds

B9: doped clone SEQ 91 (mixed)
RNA: B5 RNA with A34C, C43U, G54A, C56U, G61C
modifications: dRmY: A,G deoxy; C,U 2'-OMe
Kd [7]: 73 nM

B10: doped clone SEQ 97 (mixed)
RNA: GGGAGAGGAGAGAACGUUCUACCUUUCUCUGCCACAAGCAUACCUUCGCGGGGUUCUAUUGGUUACGACUAGCAUCGAUG
modifications: dRmY: A,G deoxy; C,U 2'-OMe
binding result [2]: binds
